# Test results: the nanobody polyreactivity screen of Harvey et al. (2022)
# Assay: yeast display, Sf9 membrane polyspecificity reagent, FACS + sequencing; frameworks hold sequencing errors
# In short: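 Nanobodies from a synthetic yeast display library (Saccharomyces cerevisiae BJ5465), induced 36–48 hours with galactose, were stained 1 hour at 4 °C with 10% biotinylated, detergent-solubilized Sf9 membrane reagent, enriched on streptavidin microbeads, then FACS-sorted. Anti-HA (expression) and streptavidin (reagent binding) fluorescence set low and high (top ~1%) gates. Polyreactivity labels come from the gate of origin. Genes were colony-PCR amplified, MiSeq 2 × 250 sequenced and filtered by CDR length.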
row,Sequence,polyreactivity (PSR sort gate)
1,QVQLVESGGGLVQAGGSLRLSCAAYGSILGIYAMGGYRQAPGKERELVAAIRTSSASTYYADSVKGRFTISRDNAKNTVYLQMNSLKPEDSAVYYCAAYAFSYTPYYSWGQGTQVTVSS,high polyreactivity
2,QVQLVESGGGLVQAGGSLLLRCAASGSIFPWNTMGWNRQAPGKERELVARISTSGASTYYADSVKGRFTISRDNAKNTVYLQMNSRKPEDTAVYYGAARDWSHRPRGYDYWGQGTQVTVSS,high polyreactivity
3,QVQLVESGGGLVQAGGSLRLSCAASGYTFAIYAMGWYRQAPGKERELVAAITWNGGSTYYADSVKGRFTISRDNAKNTVFLQMNSLKPEDTAVYYCAADYWSGGYDYWGQGTQVTVSS,low polyreactivity
4,QVQLVESGGGLVQAGGSLRLSCAASGRIFLWYAMGWYRQAPGKERELVAAISSGGSTKYADSVKGRFTISRDNAKNTVYLQMNSLKPEDTAVYYCAATRKYSYVTYYYWGQGTQVTVSS,high polyreactivity
5,QVQLVESGGGLVQAGGSLRLSCAASGSIRVTNDMGWYRQATGKERELVAAITSIGGSTNYADSVKGRFTISRDNAKNPVYLQMNSLKPEDTAVYYCNVYLGILYKYDYWGQGTQVTVSS,low polyreactivity
6,QVQHEETGGGLVQAGGSLRLSCAASGSTYRKNSMGWYRPAPGKERAFVAAISRSGGSTYYADSVKGRFTISRDNAKNTVYLQMNSLKPEDTAVYYCAASYYQHQYSYELGDYWGQGTQVTVSS,low polyreactivity
7,QVQLVESGGGLVQAGGSLRLSCAASGSTFYVYAMGWYRQAPGKERELVAAITSGTSTYYADSVKGRFTISRDNAKNTVYLQMNSLKPEDTAVYYCAAYSYYYRFPYYYWGQGTQVTVSS,high polyreactivity
8,QDQLVESGGGLVQAGGSLRLSCAASGRTLVHYGMGRYRQAPRKERELVAVITSGGSTYYADSVKARFTISRDNAKNTVYLQMNSLKPEDTAVYYCAAYKERFYEEYGYWGQGTQLTVSS,low polyreactivity
9,QVQLVESGGGLVQAGGSLRLSCAASGFIFRYNAMGWYRQAPGKEREFVAAISWGGGRTYYADSVKGRFTISRDNAKNTVYLQMNSLKPEDTAVYYCAAVSPHNRYGYKYDYWGQGTQVTVSS,high polyreactivity
10,QVQLVESGGGLVQAGGSLRLSCAASGSTFDYYAMGRYRQAPGKERELVAAITTGGRTYYADSVKGRFTISRDNAKNTVYLQMNSLKPEDTAVYYCRERDYWGQGTQVTVSS,low polyreactivity
11,QVQLVETGGGLVQAGGSLRLSCAASGFTFGANVMGWYRPAPGKESELVAGITRSGDSTYYADSVKGRFTISRDNAKNTVYLQMNILKPEDTAVYYCAADVYDGEYILDYDYWGQGTQVTVSS,low polyreactivity
12,QVQLVESGRGLVQAGGTLRLSCAASGSTFGSYAMGWYRQAPGKEREFVATISRSGGRTYYAASVKGRFTISRDNAKNTVYFQMNSLKPEDTAVYYCATDRRYWIGYDYWGPGTQVTVSS,high polyreactivity
13,QVQLVESGGGLVQAGGSLRLSCAASGIIFIWNTMGWYRQAPGKEREFVAAISRSGSGTSYADSVKGRFTISRDNAKNTVYLQMNSLKPEDTAVYYWDARLEWPYDMYYWGQGTQVTVSS,low polyreactivity
14,QVQLQESGGGLVQAGGILRRSCAACGNIFPSAVMGWYRQALGKEREFVATINSGSNTYYADSVKGRFTISRDNAKNTVYLQMNSLKLEDTAVYYCAAYFKLPAWHTYWGQGTQVTVSS,low polyreactivity
15,QVQLVESGGGLVQAGGSLRLSCAASGRIFGNYAMGWYRQAPGKERELVAAISGGGSTYYADSVKGRFTISRDNAKNTVYLQMKSLKPEDTAVYYCAARFLWSVFGRKGGYWGQGTQVTVSS,low polyreactivity
16,QVQLVESAGGLVQAGGSLRLSCAASGRIFRYNAMGWYRPAPGKERELVAAISSIGGRTYYADTVKGRFTISRDNAKNTVYLQMYSLKPEDTAVYSCNARGYLSRSHMHEYDYWGQGTQVTVSS,high polyreactivity
17,QVQLVESGGGLVQAGGSLRLSCAASGSIFGYNAMGWYRQAPGKERELDAAISISDGSTYYADSVKGRFTISRDNAKNTVYFQMNSLKPEDTAVYYCAAPRDLSGYGNFGNGPFYYWGQGTQVTVSS,low polyreactivity
18,QVQLVESGGGLVQAGGSLRLSCAGSGRTFGRYAMGGYRQAPGKERELVAAIRSGGSTYYADSVKGRFTISRDNAKNTVYFQMNSLKPEDTAVYYCAADSTSLYNYWGQGTQVTVLS,low polyreactivity
19,QVQLVESRGGLVQAGVSLRLSCASSGRIVGWYAMGWYIQAPGKERELVAVITWSDGRTYYADSVKGRFTISRDNAKNTVYLQMNSLKPEDTAVFYCAAADWITEYDYWGQGTQVTVSS,low polyreactivity
20,QVQLVESGGGLVQAGGSLRLSCDASGRTFQYYAMGWYRQAPGKVRELVAGISSCGGSTYYADSVKGRFTISRDNAKNTVDLQMNSLKPEDTAVYYCNKARYFTGQRYDYWGQGTQVTVSS,high polyreactivity
21,QVQLVESGGGLVQAGGSLRLSCAASGLTFSTYDMGGYRQAPGKERELVAAITSGDGSTYYADSVKGRFTISRDNAKNTVYLQMNSLKPEDTAVYYCAADYLEWYGDVLFPYDYWGQGTQVTVSS,low polyreactivity
22,QVQLVESGGGLVQAGGSLRLSCAASGSIFYNYAMGWYRQAPGKERELVAAISGSGGSTYYADSVKGRFTISRDNAKNTVYGQMNSLKPEDTAVYYCSTSGPQYYSRNFDYWGQGTQVTVSS,low polyreactivity

row,Sequence,polyreactivity (PSR sort gate)
1,QVQLVESGGGLVQAGGSLRLSCAASGFTFGVYALGGYRQAPGKEREFVAAISRSGSSTYYADSVKGRFTISRDNAKNTVYLQMNSLKPEDTAVYYCAKRSGNRYSFDYWGQGTQVTVSS,high polyreactivity
2,QVQLVESGGGLVQAGGSLRLSCAASGRTFRYYAMGWYRQAPGKERELVAAISSSGDRTYYADSVKGRFTISRDNAKNTVYLQMNSLKPEDTAVYYCAADRGARGDYWGQGTQVTVSS,high polyreactivity
3,QVQHVESGGGLVQAGGSLRLSCAASGRIFLHNAMGWYRQAPGKERELVAAITGGGSTYYADSVKGRFTISRDNAKNTVYLQMNSLKPEDTAVYYCATLGSLRYYWPGYDYWGQGTQVTVSS,low polyreactivity
4,QVQLVESGGGLVQAGGSLRLSCAASGSIFFRYAMGWYRPAPGKERELVAAISSSGGSTYYADSVKGRFTISRDNAKNTVYLQMNSLKPEDTAVYYCAARYYSKYYYSPFDYWGQGTQVTVSS,high polyreactivity
5,QVQLVESGGGLVQAGGSLRLSCAASGRTFYEYAMGCYIPAPGKERELVAAITSGGTTYYADSVKGRFTISRDTAKNTVYLQMNSVKPEDTAVYYCAADRYYYYWGQGTQVTVSS,high polyreactivity
6,QVQLVESGGGLVQEGGSLRLICAASGSILGSNAMGWYRQAPGKEREFVAAITWTGGSTYYADSVKGRFTISRDNAKNTVYLQMNSLKREDTAVYYCAKDVKYVKMDYWGQGTQVTVSS,low polyreactivity
7,QFQLVESGGGLVQAGGSLRLSCAASGRIFVPNGMGWYRQAPGKERELVAVIDWSGGSTYYADSVKGRFTISRDNAKNTVYLQMNRLKPEDTAVYYCNAYPYDESDYWGQGTQVTVSS,low polyreactivity
8,QVQLVESGGGLVQAGGSLRLSCAASGITFYSYAMGWYRQAPGKERELVAGISGGGGTSYADSVKGRFTISRDNAKNTVYLQMNSLKPEDTAVYYCNVYAYTYYYWAFYTEDYWGQGTQVTVSS,high polyreactivity
9,QDQLVESGGGLVQAGGSLRLSGAASGSTFDRYAMGWYRQAPGKEREFVAAITWGGGSTYYADSVKGRFTISRDNAKNTVYLQMNSLKPEDTAVYYCASRYGATFGYWGQGTQVTVSS,low polyreactivity
10,QVQLVESGGGLVQAGGSLRLSCAASGFTFKFNTMGWYRQAPGKERELVAAISWRGGDTSYADSVKGRFTISRDNAKNNVYLQMNSLKPEDTAVYYCAASPRYPYWYDYWGQGTQVTVSS,low polyreactivity
11,HVQLVESGGGLVQAGGSLRLSCAASGRILSRNAMGRYRPAPGKERELVAAISISGGSTYYADSVKGRFTISRDNAKNTVYLQRNSLKPEDTAVYYCNTAYYGYRKYDYWGQGTQVTVSS,high polyreactivity
12,QVQLVESGGGLVQAGGSLRLSCAASGFIFGTNAMGWYRQAPGKERELVAAITSRGGSTYYADSVKGRFTISRDNAKNTVYLQMNSLKPEDTAVYYCAADKPRSYYYWGQGTQVTVSS,high polyreactivity
13,QVQLGESGGGLVQAGGSLRLSCAASGFTFAYYAMGWYRQAPGKERELVAAISERGGSTYYADSVKGRFTISRDNAKNTVYLQMNILKPEDTAVYYCARTFWDYPWYQSSYYSWGQGTQVTLSS,low polyreactivity
14,QVQLVESGGGLVQAGGSLRLSCAASGNIFGWYAMGWYRQAPGKERELVAAISSGGRTNYADSVKGRFTISRDNAKNTVYLQMNSLKPEETAVYYCAVGLHKRPPPPRFRQFNYWGQGTQVTVSS,low polyreactivity
15,QVQLQESGGALVQAGGSLRLSCAASGNIYDADIMGWYRQAPGKERELVTSITDGGSTNYADSVKGRFTISRDNAKNTVYLQMNSLKPQDTAVYYCAAIAYPDIPTSFDYNSDYSYWGQGTQVTVSS,low polyreactivity
16,QVQLVESGGGLVQAGGSLRLSCAASGSTFDANAMGWYRQAPGKERELVARMSRSTGSTYYADSVKGRFTISRDTAMNSVYLQLNSLKPVDTAVYYCAKVSRASNKYGYWGQGTQVTVSS,high polyreactivity
17,QVQLVESGGGLVQAGGSLRLSCAASGRTFGVYAMGWYRQAPGKERELVATIRRGGSTYYADSVKGRFTISRDNAKNTVYLQMNSLKPEDTAVYYCNASHVTWNRKYDYWGQGTQVTVSS,low polyreactivity
18,QVQLVESGGGLVQAGGSLRLSCAASGGTFGHYTMGWYRQAPGKERELVAAISGSGGTTYYADSVKGRFTISRDNAKNTVYLQINSLKPEDTAVYFCNKGIPTRSVRSYDYWGQGTKVTVSS,high polyreactivity
19,QVQLVESGGGLVQAGGSLRLSCAASGLTFVVYAMGWYRQAPGKERELVASITSSGGRTYYADSVKGRFTISRDNAKNTVYLQMNSLKPEDTAVYYCNKYTWWLGSVDYWGQGTQVTVSS,high polyreactivity
20,QVQLVESGGGLVQAGGSLRLSCAASGSIFYYYAMGWYRQAPGKERELVADITRDCGTTYYADSVKGRFTISRDNAKNTVYLQMNSLKPEDTAVYYCNARSIVFDWSAGRAKMDYWGQGTQVTVSS,low polyreactivity
21,QVQLVESGGGLVQAGGSLRLSCAASGFISRAYAMGWYRQAPGKERELVAAISVRVGSTYYADSVKGRFTISRDNAKNTVYLQMNSLKPEDTAVYYCAALRPWPRYDYWGQGTQVTVSS,high polyreactivity
